This is an account of results in patent US10138280B2, “Polypeptides targeting glycosylated MUC2 proteins, methods of synthesis, their nucleic acids and uses thereof” (INSTITUT PASTEUR, priority 2011, dated 2018).

The target in assay [1] is T1, human colonic mucus (Muc2) (Homo sapiens, UniProt Q02817).
T1 construct: Segments of human colon (ascending, descending and sigmoid colon) were obtained from fully informed patients undergoing surgery; from tissue; host or cells: healthy human colon segments (live explants, mucus collected from them, Carnoy- or formol-fixed sections)
The assay is described as follows: Immunofluorescent staining of human mucus and fixed human colon samples. Conditions: human colon mucus from ex vivo samples and fixed purified human mucus. The text has this:
FIGS. 4A-4B. Cy5-MUB70 is specifically binding to the glycosylated moiety of Muc2 secreted in the colon mucus layer. (FIG. 4A) Immunodetection of Muc2, Muc5ac, Muc5b and Muc6 (dotblot analysis) on human mucus extracts eluted after a pulldown assay performed with biot-MUB70 on avidin conjugated beads (see Methods). Biotin is used as a negative control. Immunodetection of Muc2 (dotblot analysis) on deglycosylated mucus extracts eluted after a pulldown assay performed with biot-MUB70 on avidin conjugated beads. Non-deglycosylated mucus extract is used as a positive control. (FIG. 4B) Co-localization of Muc2 (green) and Cy5-MUB (blue) observed on fixed (Carnoy) human colon samples. Actin is stained in red (Phall.RRX). Observations are performed using a confocal microscope. Bars is 20 μm.
FIGS. 9A-9B. (FIG. 9A) Co-localization of Muc2 (green) and Cy5-MUB (blue) performed by immunofluorescent detection on human mucus extract collected on ex vivo tissues using an epifluorescent microscope. Bar is 50 μm. […]
For immunofluorescence assay mouse α-MUC2 pAbs (Santa Cruz sc-15334) was diluted 1:1000 and FITC-conjugated rabbit anti-mouse was diluted 1:2000. Host cells were detected with DAPI (nuclei, […]) or using Phalloidin-Rhodamine red X (RRX)-conjugated donkey anti-mouse antibodies (Jackson Immunoresearch Antibodies) as an actin marker (stained red); both were used at a final dilution of 1:1000. […]

The test system of a further assay is rabbit ileal mucus. Kind of assay: Mucus staining on fixed tissues, rabbit ileum. Conditions: fixed tissue, 1 μg/mL. The protocol: FIGS. 8A-8D. (FIG. 8A) Cell toxicity of Cy5-MUB70 tested on HT-29-MTX and Hela epithelial cells. Cell survival was assessed using Sytoxgreen dye on cultures exposed to 1 μg/mL Cy5-MUB70 from 0 to 10 h, as indicated. NS indicates P>0.05 (Student's T-test). (FIG. 8B) Rabbit colonic and ileal mucus staining on fixed tissues (PFA 4%), using Cy5-MUB70 (1 μg/mL) (blue). Actin is stained in red (Phall.-RRX). Bar is 50 μm. (FIG. 8C) Human ex vivo colon sample was incubated for 2 h with 1 μg/mL Cy5-MUB70 in a serum-free media. Resulting fluorescent staining was assessed using a two-photons microscope (see Methods). Z-projection, performed using ImageJ software, allows 3D localization of Cy5-MUB70 fluorescence signal. Bar is 100 μm. Colon scheme: firmly (f) and loosely (I) attached colonic mucus layers are represented at the surface of the epithelium (e). (FIG. 8D) Kinetics of colonic mucus with Cy5-MUB70. […] Human tissue autofluorescence is detected in the same red channel as Cy5.
FIGS. 11A-11C. Mucus staining using Cy5-MUB70 on fixed tissues. (FIG. 11A) Guinea pig colon, (FIG. 11B) rabbit ileum and (FIG. 11C) mouse colon were fixed in PFA 4%. Immunofluorescent staining was performed using Cy5-MUB70 (1 μg/mL) (blue). Actin is stained in red (Phall.-RRX), Muc2 is stained in green (α-Muc2). Observations were performed using a confocal microscope. Bar is 50 μm. […]

B1: Cy5-MUB70: Cy5-labelled MUB70 polypeptide, labelled via Cy5 maleimide on N-terminal cysteine (conjugate)
peptide: CVHVQYIDGETDQMLRQDDLDGYTDETIPYSTAEGIKKFEGDGYELFKDNFPAGEKFDNDDTNDQFYTVIF
In the case of B1, the “colocalization with Muc2” value in assay [1] is “colocalization detection of Muc2 and Cy5-MUB70”. The ileal mucus staining result in the assay with rabbit ileal mucus was “negative results”.
